Source: the RNAGym collection of RNA variant scans (doi:10.1073/pnas.2313332121)
This sample holds only a part of the variants without activity.

B1: TPR 5TU (parent)
chain: GGAUCUUCUCGAUCUAACAAAAAAGACAAAUCUGCCACAAAGCUUGAGAGCAUCUUCGGAUGCAGAGGCGGCAGCCUUCGGUGGCGCGAUAGCGCCAACGUUCUCAACUAUGACACGCAAAACGCGUGCUCCGUUGAAUGGAGUUUAUCAUG

Variants of: B1
Assay: polymerase ribozyme fitness, log enrichment relative to wild type (log ratio); higher = more active; in vitro selection for triplet polymerase activity
How it was run: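 Libraries of mutants in each subunit of a heterodimeric triplet polymerase ribozyme were generated by PCR and transcribed. In triplicate, each went through one in vitro selection round: annealing with biotinylated primer, partner subunit and triplets; frozen incubation at −7 °C; gel excision of extended constructs; streptavidin-bead capture; RT-PCR. Fitness, taken from Illumina sequencing of input and output libraries, is the logarithm of a genotype's enrichment over wild-type enrichment, averaged across replicates with inverse-variance weights. The logarithm is base 2, and genotypes needed ≥10 input reads and ≥1 read per output to be kept.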

| Variant | polymerase ribozyme fitness (log ratio) |
| --- | --- |
| GGAUCUUCUCGAUCUAACAAAAAAGACAAAUCUGCCACAAAGCUUGAGAGCAUCUUCGGAUGAAGAGGCGGCAGCCUUCGGUGGCGCGAUAGCGCCAACGUUCUCAACUAUGACACGCAAAACGCGUGCUCCGUUGAAUGGAGCAUAUCAUG [C63A U144C U145A] | -2.97 |
| GGAUCUUCUCGAUCUAACAAAAAAGACAAAUCUGCCACAAAGCUUGAGAGCAUCUUCGGAUGCGGAGGCGGCAGCCUUCGGUGGCGAGAUAGCGCCAACGUUCUCAACUAUGACGCGCAAAACGAGUGCUCCGUUGAAUGGAGUUUACGAUG [A64G C87A A115G C125A U148C C149G] | ≤ -4.2 |
| GGAUCUUCUCGAUCUAACAAAAAAGACAAAUCUGCCACAAAGCUUGAGAGCAUCUUCGGAUGCCGAGGCGGGAGCCUUCGGUGGCGCGAUCGCGCCAACGUUCUCUACGAUGACACGCAAAAAGCGUGCUCCGUUGAAUGGAGUUUACCAUG [A64C C72G A91C A106U U109G C123A U148C] | ≤ -4.2 |
| GGAUCUUCUCGAUCUAACAAAAAAGACAAAUCUGCCACAAAGCUUGAGAGCAUCUUCGGAUGCGGAGGCGGCAGCUUUCGGUGGCGCGAUAGCGCCAACGUUCUCAACUAUGACACGCAAAACGCGUGCUCCGUUGAAUGGAGUUUAUCAUG [A64G C76U] | -3.62 |
| GGAUCUUCUCGAUCUAACAAAAAAGACAAAUCUGCCACAAAGCUUGAGAGCAUCUUCGGAUGCCGAGGCGGCAGCCUUCGGUGACGCGAUAGCGCCAACGUUCUCAACUAUGACACGCAAAACGCGUACUCCGUUGAAUGGAGUUUAUCAUG [A64C G84A G128A] | ≤ -4.2 |
| GGAUCUUCUCGAUCUAACAAAAAAGACAAAUCUGCCACAAAGCUUGAGAGCAUCUUCGGAUGAAGAGGCAGCAGCCUUCGGUGACGCGAUAGCGCCAACGUUCUCAACUAUGACACGCAAAACGCGUGCUCCGUUGAAUGGAGUUUAUCAUG [C63A G70A G84A] | ≤ -4.2 |
| GGAUCUUCUCGAUCUAACAAAAAAGACAAAUCUGCCACAAAGCUUGAGAGCAUCUUCGGAUGUAGAGGCGGCAGCCUUCGGUGGAGCGAUAGCGCCAACGUUCUCAACUAUGACACGCAAAACGCGUGCUCCGUUGAAUGGAGUUUAUCAUG [C63U C85A] | -3.57 |
| GGAUCUUCUCGAUCUAACAAAAAAGACAAAUCUGCCACAAAGCUUGAGAGCAUCUUCGGAUGAAGAGGCGGCAGCCUUCGGUGACGCGAUAGCGCCAACGUUCUCAACUAUGACACGCAACACGCGUGCUCCGUUGAAUGGUGUAUAUCCUG [C63A G84A A121C A142U U145A A150C] | ≤ -4.2 |
| GGAUCUUCUCGAUCUAACAAAAAAGACAAAUCUGCCACAAAGCUUGAGAGCAUCUUCGGAUGCCGAGGCGGCAGCCUUCGGUGGCGCGAUAGUGCCAACGUGCUCAACUAUGACACGCAAAACGCGUGCUCCGUUGAAUGGAGUUUAUCAUG [A64C C93U U102G] | ≤ -4.2 |
| GGAUCUUCUCGAUCUAACAAAAAAGACAAAUCUGCCACAAAGCUUGAGAGCAUCUUCGGAUGUAGAGGCGGCAGCCUUCGGUGGCGCGAUAGCGCCAACGUUCUCAACUAUGACACGCAAAACGCGUGCUCCGAUGAAUGGAGUUUAUCAUG [C63U U134A] | -2.6 |
| GGAUCUUCUCGAUCUAACAAAAAAGACAAAUCUGCCACAAAGCUUGAGAGCAUCUUCGGAUGGAGAGUCGACAGCCUGCGGUGGGGCGAUAGCGCCAACAUUCUCAACUAUGACACGCAAAACGCGUGCUCCGUUGAAUGUAGUUUAUCAUG [C63G G68U G71A U78G C85G G100A G141U] | ≤ -4.2 |
| GGAUCUUCUCGAUCUAACAAAAAAGACAAAUCUGCCACAAAGCUUGAGAGCAUCUUCGGAUGCCGCGGCGGCAGCCUUCGGUGGCGCGAUAGCGCCAACGUUCUCAACUAUGACACGCAAAACGUGUGCUCCGUUGAAUGGAGUUUAUCAUG [A64C A66C C125U] | ≤ -4.2 |
| GGAUCUUCUCGAUCUAACAAAAAAGACAAAUCUGCCACAAAGCUUGAGAGCAUCUUCGGAUGUAGAGGCGGCAGCCUUCGGUGGCGCGAUAGAGCCAACGUUCUCAACUAUGACACGCAAAACGCGUGCUCCGUUGAAUGGAGUUUAUCAUG [C63U C93A] | -3.69 |
| GGAUCUUCUCGAUCUAACAAAAAAGACAAAUCUGCCACAAAGCUUGAGAGCAUCUUCGGAUGUAGAGGCGGCAGCCUUCGGUCGCGCGAUAGCGCUAACGUUCUGAACUAUGACACUCAAAACGCGUGCUCCGUUGAAUGGAGUUUAUCAUG [C63U G83C C96U C105G G117U] | -2.06 |
| GGAUCUUCUCGAUCUAACAAAAAAGACAAAUCUGCCACAAAGCUUGAGAGCAUCUUCGGAUGAAGAGGCGGCAGCCUUCGGUGGCGCGAUAGCGCCAACGUCCUCAACUAUGACACGCAAAACGCGUGCUCCGUUGAAUGGAGUUUAUCAUG [C63A U102C] | -0.926 |
| GGAUCUUCUCGAUCUAACAAAAAAGACAAAUCUGCCACAAAGCUUGAGAGCAUCUUCGGAUGGAGAGGCGGCAGCCUUCGGUGGCGCGAUAACGCCAACGUUCUCAACUAUGACACGCAAAACGCGUGCUCCGUUGAAUGGAGUUUAUCAUG [C63G G92A] | -2.18 |
| GGAUCUUCUCGAUCUAACAAAAAAGACAAAUCUGCCACAAAGCUUGAGAGCAUCUUCGGAUGAAGAGGCGGCAGCCUUCGGUGGCGCGAUAGCGCCAACGUCCUCAACUAUGACACGCAAAACGCGUGCUCCGUUGAAUGGGGUUUAUCAUG [C63A U102C A142G] | -2.31 |
| GGAUCUUCUCGAUCUAACAAAAAAGACAAAUCUGCCACAAAGCUUGAGAGCAUCUUCGGAUGGAGAGGCGGCAGCCUUCGGUGGUGCGAUAGCGCCAACGUUCUCAACUAUGACACGCAAAACGCGUGCUCCGUUGAAUGGAGUAUAUCAUG [C63G C85U U145A] | 0.338 |
| GGAUCUUCUCGAUCUAACAAAAAAGACAAAUCUGCCACAAAGCUUGAGAGCAUCUUCGGAUGUAGAGGCGGUAGCCUUCGGUGGCGCGAUAGCGCCAACGUUCUAAACUAUGACACGCAAAACGCGUGCUCCGUUGAAUGGAGUUUAUCAUG [C63U C72U C105A] | -3.97 |
